Experimental data as given in a protein production outcome set (Wang et al. 2014).

Assay: label from the status in PepcDB records

Row | Sequence | protein production
1 | MSDLVRVERKGRVTTVILNRPASRNAVNGPTAAALCAAFEQFDRDDAASVAVLWGAGGTFCAGADLKAFGTPEANSVHRTGPGPMGPSRMMLSKPVIAAVSGYAVAGGLELALWCDLRVAEEDAVFGVFCRRWGVPLIDGGTVRLPRLIGHSRAMDMILTGRGVPADEALAMGLANRVVPKGQARQAAEELAAQLAALPQQCLRSDRLSALHQWGLPESAALDLEFASIARVAGEALEGARRFAAGAGRHGAPAPRAEQGDTL | not failed
2 | MMTPEQIATVMTGKVEAAGKGRHEAVLASPMIQNHAPFLHLADDGALICAWFGGTLEGKSDISIFTSVLAAGSNKWGEPQRLSFDPDHSEQNPVLFAAPGNTLLLFHTSQPSGNQDECRIRMAEVSRDASDPTRLTAGEGLYLDLPRGCFVRAPLTVRADGAWLLPIFRCIQRPGQKWNGSHDRAAVGISEDCGKSWRLEDIDQSTGCVHMSPLVIGDEKLAAVFRRRQADFVYRTESADGGRTWSAPQATDVPNNNSSIAAIRLNDGRIAMICNPTNAAMSSDRRASLYDELGEDDDRPDANPDGGCVPIWGVPRAPVTVCISEDGAKSFPQRITIEDGPGTCLSNNSIDGHNKEMSYPWLLEGADGSLHIAYTYYRRAIKYVRLAPGWARAADGR | failed
3 | MLVDSQYKECVKEIINWGLFLYSEESRRNLIHDSLVELRCHFTWELVIKDNYMPDLEAKILETEFLDTNYNMGMHNLMAYVRHLKGEQEEALQSLKEAEALIEGEQLGKRSLVTWGNCAWVHYHRGSLAEAQIYLDKVENVCREFASPFRYRMECAEIDCEEGWALLKCGGSNCTRAMACFAKALQEEPENPEYNAGYAITAFRMDFSNEISLEPLRKAVRLNPEDPHLKVLLALKLQDLGKQDEAEKHIEEALPKIPSRNNIFGYVAKFYRRKGCVEEALEFLERALKTKPSSVYLHFQIGLCHKSRVFQIKEATNMHPKGKDRERADQSIRSAIYYFEKTLDLKPTYERAYIDLAEMYAESKQFEEAEEAFQKVLSMLSNLEVHMQQEIHFRYGKFQQFHMKSENIAITHYLKGLKIEVTSIFRDKLLKALQKLAERRMQQNVHVLESLSLLGFVYRLKGDTRKAMSCYEKALRLTEELNPEF | failed
4 | MMPLSTPDFASIRDTLLRDLQNLRADADIAPDSDYFVRASSVASAVEGLYQHQSWIARQIFPDTADSEYLEQHARLRGIVRKPAAAASGTLRISGNAGAVVSGSLQLRIGEQLYATPAANPDGSPYAARLDANGQAELPIFASQAGAAGNQPESLPVELMQAPSGVSAKALLLSMRNGVDVEDDAALLDRLLELIRRPPAGGNRHDYRRWAMEVKGVSAAYVYPLRRGLGTVDVVITANGDLPSQEILNNVQAHIEDLRPVTAKSCLVLAPTPRPVDIDVALNLGGANLDAFTPLLQQTLQAYFAGLAPGERLVKSRIEALISDLPGVQDRQLNSPAGNVDPVSDPTKVEWLRLGKLTVGLLKLEHHHHHH | not failed
5 | MTKMLKLFDAHFHIIDYRFPLITNQSYLPPEFTVEDYLQRAKPLNICGGAVVSGSFQAFDQSYLLAALSILGSDFVGVTQLPATVSDEEIIQLNQKGIRAVRFNVKRGGSENIHRLKYFAHRIYEMVRWHVEIYVDSKDLGDLTSLLLELPAVSIDHLGLSHSGFSQLLHLVEHGIKIKASGFGRVDFDVKKALQTIAQINPDALLFGTDLPSTRAPRPFLDSDIQIIQDLFDEKLTEKILYRNARNFYSKNSSELEHHHHHH | not failed
6 | MSLKAVIFDLDGVITDTAEYHFLAWKHIAEQIDIPFDRDMNERLKGISREESLESILIFGGAETKYTNAEKQELMHRKNRDYQMLISKLTPEDLLPGIGRLLCQLKNENIKIGLASSSRNAPKILRRLAIIDDFHAIVDPTTLAKGKPDPDIFLTAAAMLDVSPADCAAIEDAEAGISAIKSAGMFAVGVGQGQPMLGADLVVRQTSDLTLELLHEEWEQYRIRESEGHHHHHH | not failed
7 | MNSPWETESGDRRVESGAGVSVGGRGQSRPRSCSIKAAEGKKGRSSACAPRWRLRSALLREDRCRSAPRIPRGCFSPRAPWRGGNSCAHCPRPRSGRPETGRAWGSRRAPRRGRPPAHGAPRPLPGLPRAASDRWAPARTSLIFILCPRGCLLLSARTLGIPWQPTSLRSRPTSLSPASCATQRASSWACSSASIETRPLNFFISYDAPPLRTRTIKLLVTFLVEEVSRNGAAKQEQFQETLYFTHLPRDKRLQKELLALQNDPPPGMTLNEKSVQNSITQWIVDMEGAPGTLYEGEKFQLLFKFSSRYPFDSPQVMFTGENIPVHPHVYSNGHICLSILTEDWSPALSVQSVCLSIISMLSSCKEKRRPPDNSFYVRTCNKNPKKTKWWYHDDTC | failed
8 | MFESLNKVINGYGLISGFAIIGVTMAVSYWLSARLTRGRLHGSAIAIFLGLVLSYVGGVATGGQKGLVDVPLMSGIGLLGGAMLRDFAIVATAFGVNVEELRRAGVSGVVSLFLGVGSSFVAGVAVAMAFGYTDAVSLTTIGAGAVTYIVGPVTGAALGASSEVMALSIAAGLVKAILVMVLTPFVAPYIGLNNPRTAVIFGGLMGTSSGVAGGLAATDPKLVPYGCLTAAFYTAIGCLLGPSLLYFSVRGLVG | failed
9 | MNIRPSQIKHKQRIASFITHAVVVVMGVLIVSVLFQSYQISSRLMAQEGQRTSVQTSSLIQSLFDFRLAALRIHQDSTAKNASLINALVSRDSSRLDEFFSSVDELELSNAPDLRFISSHDNILWDDGNASFYGIAQQELNKLIRRVAISGNWHLVQTPSEGKSVHILMRRSSLIEAGTGQVVGYLYVGIVLNDNFALLENIRSGSNSENLVLAVDTTPLVSTLKGNEPYSLDYVVHSAKDAMRDSFIVGQTFLEVESVPTYLCVYSIQTNQNVLTLRDNFYFWMAFALISMIGVSIASRWWLQKRIQREIETLMNYTHKLMDLDTKSEFIGSKIYEFDYFGRTLEQSFRRLANKEKQFEDLFNFALSPTMLWNTSGRLIRMNPSAQIQFLREDAQNHFLFEILERQLLPTITNAAQGNNPSDVTTEVDGRVYRWNLSPIMVEGQIISIITQGQDITTIAEAEKQSQAARREAEESARVRAEFLAKMSHELRTPLNGVLGVSQLLKRTPLNDEQREHVAVLCSSGEHLLAVLNDILDFSRLEQGKFRIQKNEFRLKELVCAIDRIYRPLCNEKGLELVVNSNITTAAIVRSDQIRINQILFNLLNNAIKFTHQGSIRVELQLIEGDPLAQLVIQVVDTGIGIREQDLTVIFEPFMQAESTTTREYGGSGLGLTIVHSLVEMLSGQLHVSSEYGIGTRFEIQLPIELVEKPDAPQQLLPAPDPQPLFDKTLRVLLVEDNHTNAFIAQAFCRKYGLDVSWVTDGLQAIEELKIHDYDLVLMDNQLPYLDGVETTRTIKKVLHLPVVVYACTADGLEETRQAFFHAGAEYVLVKPLKEQTLHKALEHFKHHHGQKNAGLN | failed
10 | MEITIFGKGNMGQAIGHNFEIAGHEVTYYGSKDQATTLGEIVIMAVPYPALAALAKQYATQLKGKIVVDITNPLNFDTWDDLVVPADSSAAQELQQQLPDSQVLKAFNTTFAATLQSGQVNGKEPTTVLVAGNDDSAKQRFTRALADSPLEVKDAGKLKRARELEAMGFMQMTLAASEQIGWTGGFAVVK | failed
11 | MGRKSNRAKEKKQRRLEERAAMDAVCAKVDAANKLEDPLSAMPVFKKYDRNGLNLQIECKRVTALSPDTVEWAYELTRANMQTLYEQSEWGWKEREKREEMKDERAWYLLARDADSTPLAFSHFRFDVECGDEVLYCYEVQLESKVRRKGLGKFLIQILQLIANSTQMKKVMLTVFKHNHGAYQFFREALQFEIDETSPSMSGCCGEDCSYEILSRRTKYGEVSGHAHGGHCGGCCH | not failed
12 | MIWQLIDKHRQSFGVEPLCRVLQVSPSAYRRHAARLRDRSRRSARAIRDEELAVQIHRVWQENYEVYGARKVWRQMHREHQVVARCTVERLMREMGLCGVTRGKTVKTTQPDPDNANPRDLVKRQFTAERPNQLWVADFTFVSTWQGFAYVAFIVDVYSRFIVGWRVSRHMRTEFVLDALEQALHTRRPEPHRLVHHSDRGSQYLSIRYSERLGEAGIEPSVGNTGDSYDNALAETINGLYKTELIHKRGPWKSVDSLEWETLKWVTWFNHQRLLEPIGNRPPAEFEALYEQSQATISVAA | failed
13 | ASATETNTAPSADTQAPKPVNTVTSDVDCSVSAAWGLYKFNQKSNFSAEFEMPESVKAGTGFDALIKIKDISVSNDNLSGYKNAKLTKSSIRINVGKNVKLDGNQPGLSLSNGVLSINDHLKASLEGNSLRISAAPITVRLQALTEGTLTFIPEKTILTNTASVDGYTANTTCTTNADKPFATVKVDPADGLTITAPESASIKQDVQITATVPEKLNEKMDGKVQFFVNHIAAGDPVPVTEDNKASTSIIFDTSGSKTITARFIDAEGYNPAPDGETIIPVVTELDTKKPEDTDSYTGLINGSATSLLKPAKVMPGEKVSVSASLLPNKAPIRVYEIGINAPEDVKYIDGTGKTNYSSKLATTGSVFSSPGSGYYDPEWKNESKKPNESYRGFHSDTSYSVVDTSPQTVSAEFEIPKTLAPGIYMFQMGVYKYSNSLKDLVSIPETAFEIAGPDLPALPERKIKPQPEETPEVSDGSSTAKLVKSP | not failed
14 | MSQFDRIHLVVLDSVGIGAAPDANDFVNAGVPDGASDTLGHISKTVGLAVPNMAKIGLGNIPRPQALKTVPAEENPSGYATKLQEVSLGKDTMTGHWEIMGLNITEPFDTFWNGFPEDIITKIEDFSGRKVIREANKPYSGTAVIDDFGPRQMETGELIIYTSADPVLQIAAHEDIIPLEELYRICEYARSITMERPALLGRIIARPYVGEPGNFTRTANRHDYAVSPFEDTVLNKLDQAGIDTYAVGKINDIFNGSGINHDMGHNKSNSHGIDTLIKTMGLSEFEKGFSFTNLVDFDALYGHRRDPHGYRDCLHEFDERLPEIISAMRDKDLLLITADHGNDPTYAGTDHTREYIPLLAYSPSFTGNGLIPVGHFADISATVADNFGVDTAMIGESFLQDLV | failed
15 | MSLSDLLYEIQDKVGLLTMNRISKHNAFDNQLLTEMRIRLDSAINDTNVRVIVLKANGKHFSAGADLTWMQSMANFTEEENLEDSLVLGNLMYSISQSPKPTIAMVQGAAFGGGAGLAAACDIAIASTSARFCFSEVKLGLIPAVISPYVVRAIGERAAKMLFMSAEVFDATRAYSLNLVQHCVPDDTLLEFTLKYASQISNNAPEAVKNSKQLAQYVANKKIDEELVRYTASLIAHKRVSDEGQEGLKAFLNKEIPNWNEGHHHHHH | not failed
16 | MRSSDILIVDDEVGIRDLLSEILQDEGYSVALAENAEEARKLRHQARPAMVLLDIWMPDCDGITLLKEWAKNGQLNMPVVVMSGHASIDTAVEATKIGAIDFLEKPISLQKLLSAVENALKHGAAQIETGPVFDKLGNSAAIQEMNREVEAAAKRTSPVFLTGEAGSPFETVARYFHKNGTPWVSPARVEYLIDMPMELLQKAEGGVLYVGDIAQYSRNIQTGITFIIGKAERCRVRVIASCSYAAGSDGISCEEKLAGLFSESVVRIPPLSMQHEDIPFLIQGIACNVAESQKITPTAFSDDALAVLSRYDWPGNFEQLQNVVTTLLLEADGQEIGIGAASSALGRGVPADGTGHMACGFDFNLPLRELREEVERRYFEYHIAQEGQNMSKVAQKVGLERTHLYRKLKQLGIGVSRRAGEKTEE | not failed
